For three molecules, Kd results are on record in patent publication US20200247855A1, “THERAPY AND DIAGNOSTICS” (OXFORD UNIVERSITY INNOVATION LIMITED, priority 2017, published 2020).

Like-named read-outs stand apart in the source and are kept apart here.

What is called Kd is the free concentration of one partner at which half of the binding sites on the other are occupied at equilibrium, for simple one-to-one binding.

The target of experiment [1] is CCL2_HUMAN (Homo sapiens, UniProt P13500). Nature of the experiment: Biolayer interferometry (BLI) binding. In a few lines: (§1)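 Analyte: chemokine, screened at 300 nM then as a dose series for binders. Ligand: purified His-tagged tick evasin on Ni-NTA sensors. Kd obtained by fitting association, equilibrium and dissociation traces.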
For experiment [2], the target named is T1, CCL23_HUMAN (Homo sapiens, UniProt P55773).
T1 sequence (P55773 22-120): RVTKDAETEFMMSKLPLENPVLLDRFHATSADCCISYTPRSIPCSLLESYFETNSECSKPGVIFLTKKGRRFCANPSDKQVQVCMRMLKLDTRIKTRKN
Nature of the experiment: Biolayer interferometry (BLI) binding. Summed up: as §1

Experiment [3] has as its target T2, CCL1_HUMAN (Homo sapiens, UniProt P22362).
T2 sequence (P22362 24-96): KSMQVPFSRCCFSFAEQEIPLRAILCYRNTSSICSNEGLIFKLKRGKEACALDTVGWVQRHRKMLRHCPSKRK
The following applies: read-out: Kd, CCL1_HUMAN, previously described evasins; data obtained from publications [20-22,32]; cited from earlier work.

Experiment [4] concerns the target T3, CCL5_HUMAN (Homo sapiens, UniProt P13501).
T3 sequence (P13501 24-91): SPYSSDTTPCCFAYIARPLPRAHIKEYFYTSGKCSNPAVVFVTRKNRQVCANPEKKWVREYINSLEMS
The following applies: read-out: Kd, CCL5_HUMAN, previously described evasins; data obtained from publications [20-22,32]; cited from earlier work.

The target in experiment [5] is T4, CCL17_HUMAN (Homo sapiens, UniProt Q92583).
T4 sequence (Q92583 24-94): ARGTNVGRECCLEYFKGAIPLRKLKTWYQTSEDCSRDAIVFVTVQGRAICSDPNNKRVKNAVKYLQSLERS
The note with it: read-out: Kd, CCL17_HUMAN, previously described evasins; data obtained from publications [20-22,32]; cited from earlier work.

Experiment [6] addresses T5, CCL24_HUMAN (Homo sapiens, UniProt O00175).
T5 sequence (O00175 27-119): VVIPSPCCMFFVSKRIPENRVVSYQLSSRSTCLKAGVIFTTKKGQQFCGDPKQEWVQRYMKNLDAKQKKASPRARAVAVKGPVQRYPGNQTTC
The note with it: read-out: Kd, CCL24_HUMAN, previously described evasins; data obtained from publications [20-22,32]; cited from earlier work.

The target in experiment [7] is T2, CCL1_HUMAN. In words: Biolayer interferometry (BLI) binding. Summed up:
as §1
A general note: Biolayer interferometry detects binding as a change in optical thickness at a sensor tip.

Experiment [8] addresses T3, CCL5_HUMAN. In words: Biolayer interferometry (BLI) binding. Summed up: as §1
The target in experiment [9] is T6, CCL19_HUMAN (Homo sapiens, UniProt Q99731).
T6 sequence (Q99731 22-98): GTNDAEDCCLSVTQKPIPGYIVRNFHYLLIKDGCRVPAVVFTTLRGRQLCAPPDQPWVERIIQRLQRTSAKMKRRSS
Nature of the experiment: Biolayer interferometry (BLI) binding. Summed up: as §1

For experiment [10], the target named is T7, CCL27_HUMAN (Homo sapiens, UniProt Q9Y4X3).
T7 sequence (Q9Y4X3 25-112): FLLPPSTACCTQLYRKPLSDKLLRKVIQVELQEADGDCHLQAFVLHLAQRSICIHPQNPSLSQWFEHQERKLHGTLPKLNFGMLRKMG
Nature of the experiment: Biolayer interferometry (BLI) binding. In a few lines: as §1

Experiment [11] has as its target CCL11_HUMAN (Homo sapiens, UniProt P51671). Nature of the experiment: Biolayer interferometry (BLI) binding. In a few lines: as §1

CCL11_HUMAN, sequence (P51671 24-97): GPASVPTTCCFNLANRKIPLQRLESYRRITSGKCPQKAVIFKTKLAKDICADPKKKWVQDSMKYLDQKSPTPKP
CCL2_HUMAN, sequence (P13500 24-99): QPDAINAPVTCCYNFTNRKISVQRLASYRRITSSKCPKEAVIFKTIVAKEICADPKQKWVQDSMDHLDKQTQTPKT

B1: P672_RHIPU: tick CKBP, Rhipicephalus pulchellus (protein, listed as Rhipicephalus pulchellus)
chain: VCEVSEQEGVGEDNATEDEDYEDFFKPVTCYFANSTVGPLRPPNCTVVCTNNTAWWNDTKSDGGHCYSEYRPEKRTHSREIYNCTIGVCGNGTCIANHTYADCW
As for B1, the Kd in experiment [1] worked out at 9.1 nM; in experiment [2] it was 10 nM.

B2: EVASIN4: previously described tick CKBP evasin 4, from Rhipicephalus sanguineus (protein, listed as Rhipicephalus sanguineus)
chain: EVPQMTSSSAPDLEEEDDYTAYAPLTCYFTNSTLGLLAPPNCSVLCNSTTTWFNETSPNNASCLLTVDFLTQDAILQENQPYNCSVGHCDNGTCAGPPRHAQCW
Regarding B2, the equilibrium dissociation constant (Kd) in experiment [3] was 0.2 nM; in experiment [4], 0.09 nM; in experiment [5] it was 0.61 nM; in [6] it was 0.41 nM.

B3: P1243_AMBAM: tick CKBP, Amblyomma americanum; AAM-02 stated identical (protein, listed as Amblyomma americanum)
chain: RNHTEDNSTEYYDYEEARCACPARHLNNTNGTVLKLLGCHYFCNGTLCTAPDGYPCYNLTAQQVRTLTTYPNTSCAVGVCMKGTCVKNGTMEQCFKTP
Take B3: the Kd in experiment [7] is 21.3 nM; in [8] it was 1.74 nM; in [9], 0.592 nM; in experiment [10], 15.1 nM; in experiment [11], 6.03 nM.
